Source: patent publication US20220289795, “EFFICIENT METHOD FOR PREPARING PPR PROTEIN AND USE OF THE SAME” (EditForce, Inc., published 2022)
Changes are numbered by the printed parent chain.

Assays:
Assay in all cases: ELONA; RPB-ELISA
v3.1_PPR20 = target: T1, v3.1_PPR20 (Artificial Sequence); conditions: tags: luciferase fusion; label: 5'-biotin
T1 chain: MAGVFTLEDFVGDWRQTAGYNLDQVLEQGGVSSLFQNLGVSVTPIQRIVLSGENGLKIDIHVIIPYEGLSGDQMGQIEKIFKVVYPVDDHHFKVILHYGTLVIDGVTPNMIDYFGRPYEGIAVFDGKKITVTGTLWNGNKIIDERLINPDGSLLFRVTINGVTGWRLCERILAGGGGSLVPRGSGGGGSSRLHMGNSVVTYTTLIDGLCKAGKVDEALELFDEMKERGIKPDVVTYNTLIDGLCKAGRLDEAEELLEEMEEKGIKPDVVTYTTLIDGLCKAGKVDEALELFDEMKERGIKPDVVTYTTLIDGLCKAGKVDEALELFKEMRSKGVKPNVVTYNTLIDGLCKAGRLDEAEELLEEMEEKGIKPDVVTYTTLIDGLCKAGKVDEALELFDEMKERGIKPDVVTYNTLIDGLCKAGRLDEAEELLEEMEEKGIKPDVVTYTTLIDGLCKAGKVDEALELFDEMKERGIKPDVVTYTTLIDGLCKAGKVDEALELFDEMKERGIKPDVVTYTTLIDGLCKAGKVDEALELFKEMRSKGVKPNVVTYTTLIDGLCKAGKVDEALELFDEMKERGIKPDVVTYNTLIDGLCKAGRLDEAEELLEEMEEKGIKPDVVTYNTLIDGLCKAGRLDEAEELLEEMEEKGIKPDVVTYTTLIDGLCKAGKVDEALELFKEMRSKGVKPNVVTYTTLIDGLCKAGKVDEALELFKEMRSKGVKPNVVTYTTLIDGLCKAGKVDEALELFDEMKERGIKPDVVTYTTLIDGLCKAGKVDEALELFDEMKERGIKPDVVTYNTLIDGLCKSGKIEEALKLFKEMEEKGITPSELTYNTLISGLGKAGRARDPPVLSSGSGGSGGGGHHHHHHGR

NL_v2_PPR20 = target: T2, NL_v2_PPR20 (Artificial Sequence); conditions: tags: N-term luciferase, C-term 6xHis; label: 5'-biotin
T2 chain: T1 chain with K318D, K528D, K668D, K703D

v3.1_PPR21 = target: T3, v3.1_PPR21 (Artificial Sequence); conditions: tags: luciferase fusion; label: 5'-biotin
T3 chain: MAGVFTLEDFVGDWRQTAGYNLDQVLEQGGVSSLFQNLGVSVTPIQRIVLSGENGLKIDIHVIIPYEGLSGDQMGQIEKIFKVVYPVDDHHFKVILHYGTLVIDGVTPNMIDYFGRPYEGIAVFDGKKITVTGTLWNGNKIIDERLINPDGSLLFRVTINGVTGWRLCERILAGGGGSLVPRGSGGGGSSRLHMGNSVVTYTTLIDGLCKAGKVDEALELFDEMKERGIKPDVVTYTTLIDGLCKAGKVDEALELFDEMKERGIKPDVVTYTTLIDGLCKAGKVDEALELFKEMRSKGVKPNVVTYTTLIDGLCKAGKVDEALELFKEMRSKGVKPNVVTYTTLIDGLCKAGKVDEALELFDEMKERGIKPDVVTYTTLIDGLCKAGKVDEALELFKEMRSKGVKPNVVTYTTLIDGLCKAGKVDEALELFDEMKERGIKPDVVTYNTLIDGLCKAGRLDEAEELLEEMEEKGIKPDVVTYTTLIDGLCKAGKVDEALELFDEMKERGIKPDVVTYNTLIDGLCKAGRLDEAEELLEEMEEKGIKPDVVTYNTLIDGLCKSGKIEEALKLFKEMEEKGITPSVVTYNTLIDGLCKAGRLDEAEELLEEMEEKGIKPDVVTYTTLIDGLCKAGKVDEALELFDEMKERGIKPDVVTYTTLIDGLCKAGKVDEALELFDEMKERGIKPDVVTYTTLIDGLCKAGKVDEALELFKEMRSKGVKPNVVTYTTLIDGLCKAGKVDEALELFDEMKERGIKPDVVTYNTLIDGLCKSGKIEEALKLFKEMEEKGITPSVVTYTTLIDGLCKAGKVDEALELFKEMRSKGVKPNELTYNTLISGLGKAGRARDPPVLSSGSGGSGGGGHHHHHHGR

NL_v2_PPR21 = target: T4, NL_v2_PPR21 (Artificial Sequence); conditions: tags: N-term luciferase, C-term 6xHis; label: 5'-biotin
T4 chain: T3 chain with K283D, K318D, K388D, K703D, K808D

v3.1_PPR19 = target: T5, v3.1_PPR19 (Artificial Sequence); conditions: tags: luciferase fusion; label: 5'-biotin
T5 chain: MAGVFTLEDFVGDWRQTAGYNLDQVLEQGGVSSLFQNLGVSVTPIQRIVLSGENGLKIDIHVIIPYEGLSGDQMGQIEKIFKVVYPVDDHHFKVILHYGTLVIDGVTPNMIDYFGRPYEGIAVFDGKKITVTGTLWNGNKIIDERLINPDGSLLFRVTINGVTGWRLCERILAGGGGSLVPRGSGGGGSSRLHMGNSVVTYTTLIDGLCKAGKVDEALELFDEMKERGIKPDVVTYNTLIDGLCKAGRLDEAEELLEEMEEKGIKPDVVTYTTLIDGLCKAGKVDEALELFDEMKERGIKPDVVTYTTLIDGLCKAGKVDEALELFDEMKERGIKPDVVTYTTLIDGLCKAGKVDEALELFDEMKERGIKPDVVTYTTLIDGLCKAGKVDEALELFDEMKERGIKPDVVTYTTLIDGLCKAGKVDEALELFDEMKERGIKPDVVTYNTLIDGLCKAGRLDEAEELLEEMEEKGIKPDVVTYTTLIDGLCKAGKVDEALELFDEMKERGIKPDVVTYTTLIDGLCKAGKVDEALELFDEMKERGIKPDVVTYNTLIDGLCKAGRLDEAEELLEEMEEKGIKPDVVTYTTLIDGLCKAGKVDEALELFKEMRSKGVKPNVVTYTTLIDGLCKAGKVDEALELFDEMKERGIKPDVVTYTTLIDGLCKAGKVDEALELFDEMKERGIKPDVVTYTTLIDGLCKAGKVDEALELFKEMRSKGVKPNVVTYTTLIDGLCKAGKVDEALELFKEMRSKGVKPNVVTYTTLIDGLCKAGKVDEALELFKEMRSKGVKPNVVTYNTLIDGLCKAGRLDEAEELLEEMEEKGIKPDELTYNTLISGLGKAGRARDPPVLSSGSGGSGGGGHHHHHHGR

NL_v2_PPR19 = target: T6, NL_v2_PPR19 (Artificial Sequence); conditions: tags: N-term luciferase, C-term 6xHis; label: 5'-biotin
T6 chain: T5 chain with K598D, K703D, K738D, K773D

B1: RNA_20 (ssRNA)
RNA: GACAUGCGUGAUGUGGAGUUAAGGCGACUG
v3.1_PPR20
  binding signal: 3.6e+06 luminescence
NL_v2_PPR20
  binding signal: 1.2e+07 luminescence

B2: RNA_21 (ssRNA)
RNA: GACAUGCGGAAGAGUGUCUGGAGCAGACUG
v3.1_PPR21
  binding signal: 4.9e+06 luminescence
NL_v2_PPR21
  binding signal: 5e+07 luminescence

B3: RNA_19 (ssRNA)
RNA: GACAUGCGUGGGGGUGGUAGGAAAUGACUG
v3.1_PPR19
  binding signal: 1.3e+07 luminescence
NL_v2_PPR19
  binding signal: 1.3e+07 luminescence
